Where no end group is shown, it is not given here.
Test: PRM target quantification of synthetic mAb peptide standards diluted with DDM, FA or cell digest matrix
Assay type: physicochemical
Settings: 10 fmol/μl peptide mixture, triplicate; for Ratio of Average Peak Area DDM Diluted/FA Diluted: 0.015% DDM vs 0.1% FA (control); for Ratio of Average Peak Area Matrix Diluted/FA Diluted: complex HeLa cell lysate digest matrix vs 0.1% FA (control)
Procedure: HeLa cell lysate protein digests were diluted to 0.05 ng/μL by 0.1% FA or 0.015% DDM solution, and 0.2 ng (4 μL) was injected onto the LC-MS to simulate single cell sample analysis. Sixteen synthetic peptides from a mAb's constant region and CDR were diluted and mixed to a final concentration of 10 fmol/μL by 0.1% FA, 0.015% DDM solution or complex cell digest matrix. In reconstitution experiments, 20 μL of 500 fmol/μL BSA digests and 200 ng/μL HeLa digests were aliquoted into vials and dried in vacuo. Dried samples were reconstituted by 0.1% FA or 0.015% DDM solution. One picomole BSA digests and 100 ng HeLa digests were loaded onto the column for nanoLC-MS/MS analysis.
PRM target quantification was performed on an Orbitrap Exploris 480 mass spectrometer equipped with an UltiMate 3000 RSLCnano system and 75 μm ID×25 cm C18 column (CoAnn Technologies, 360 μm OD). A short gradient with a flow rate of 0.3 μL/min was set up as follows: 5% B at 0 min, 8% B at 3 min, 40% B at 20 min, and 95% B from 30-35 min. The m/z of the most intense surrogate peptide peak was selected for PRM analysis with 5 minutes windows. MS/MS spectra were acquired using HCD with a normalized collision energy of 30% at a resolution of 30K (m/z 200) and a maximum injection time of 100 ms.
Database searches for protein identification were performed using SEQUEST and Mascot embedded into Proteome Discoverer 2.2 (Thermo Fisher Scientific). The human UniProt target-decoy protein database including common contaminants was used for HeLa sample database searches. Precursor ion mass tolerance was set to 20 ppm and fragment ion mass tolerance was set to 0.02 Da. Trypsin was specified as the digestion enzyme during the database search with one missed cleavage allowed. Methionine oxidation (+16 Da) was selected as a variable modification and cysteine carbamidomethylation was chosen as a fixed modification for the normal (alkylated) digests. False discovery rates (FDRs) were set to 1% for peptide identification and 5% for protein identification. Peptide mapping and BSA sample data were analyzed using Protein Metrics Byonic™ (version 3.11.3) by searching the raw files against the mAb or BSA protein sequence. All peptide quantification was executed using Skyline Daily software (University of Washington, WA) by extracting the MS' peak area of all detected charge states. The three most intense fragment peaks free of interference were selected for PRM target quantification. Empower (Milford, MA) was employed to extract UV chromatogram peak areas. The peptide hydrophobicity was calculated using the Peptide Synthesis and Proteotypic Peptide Analyzing Tool from ThermoFisher Scientific (Waltham, MA). GraphPad Prism 9.0.2 (San Diego, CA) was used for correlation analysis and p-value calculation.
In order to optimize a method for characterizing peptides for PK studies, sixteen peptides from different mAb molecules, including 13 CDR peptides and three constant region peptides, were selected and synthesized. Information for the synthetic peptide standards, including stock concentration, dilution, hydrophobicity index value, and retention time is shown in Table 1. All synthetic peptide standards were diluted and mixed as a single peptide mixture with a final concentration of 10 fmol/μl using either a DDM solution, formic acid solution (control) or complex HeLa cell lysate digest matrix. PRM acquisition was then used to quantify the peak area of these 16 target peptides and compare results between different samples. Detailed PRM setting information is listed in Table 2 including m/z value and charge states of each target peptide. Each sample was analyzed in triplicate, and average peak areas for each peptide from the DDM prepared samples and matrix prepared samples were compared with the control samples.

Row | Substance | Ratio of Average Peak Area DDM Diluted/FA Diluted | Ratio of Average Peak Area Matrix Diluted/FA Diluted
1 | DIATYYCQQH [synthetic mAb CDR peptide standard] | 1.1 | 1.4
2 | DNSLTAPYVFGTGTK [synthetic mAb CDR peptide standard] | 1.4 | 1.1
3 | DTAVYYCASGS [synthetic mAb CDR peptide standard] | 0.9 | 0.6
4 | DWNQNNWF [synthetic mAb CDR peptide standard] | 2.4 | 3.0
5 | GLEWVAVISYDGSNK [synthetic mAb CDR peptide standard] | 10.3 | 4.7
6 | LLIYAASNLETGVPSR (also: Arg16 stable isotope labeled, +10 Da) [synthetic mAb CDR peptide standard] | 5.5 | 2.7
7 | LLIYDASNLK [synthetic mAb CDR peptide standard] | 1.2 | 1.4
8 | LMIYDVSK [synthetic mAb CDR peptide standard] | 1.1 | 1.3
9 | LSCAASGFTFSNYAMYWVR [synthetic mAb CDR peptide standard] | 29.4 | 9.2
10 | LSCAASGITFSNAWMSWVR [synthetic mAb CDR peptide standard] | 37.9 | 16.9
11 | NQVSLTCLVK [synthetic mAb constant region peptide standard] | 0.7 | 1.1
12 | TNYLKPTHQTNTIIDVVLSPSH [synthetic mAb constant region peptide standard] | 18.4 | 32.1
13 | TNYLTHR [synthetic mAb CDR peptide standard] | 1.7 | 0.4
14 | VTISCTGSSSNIGTHY [synthetic mAb CDR peptide standard] | 1.1 | 1.4
15 | VVSVLTVLHQDWLNGK [synthetic mAb constant region peptide standard] | 12.1 | 33.2

— US12699101B2, “Maximizing hydrophobic peptide recovery using a mass spectrometry compatible surfactant” (Regeneron Pharmaceuticals, Inc., priority 2022, dated 2026)
